Measurements reported in the Human Domainome abundance scans (Beltran et al. 2025).
± gives the uncertainty stated by the source.

B1: Androgen receptor, residues 557 to 632; numbered along this chain, P10275 (parent)
chain: QKTCLICGDEASGCHYGALTCGSCKVFFKRAAEGKQKYLCASRNDCTIDKFRRKNCPSCRLRKCYEAGMTLGARKL
B2: FERM and PDZ domain-containing protein 4, residues 75 to 154; numbered along this chain, Q14CM0 (parent)
chain: APRKVEMRRDPVLGFGFVAGSEKPVVVRSVTPGGPSEGKLIPGDQIVMINDEPVSAAPRERVIDLVRSCKESILLTVIQP

Variants of: B1
Test: abundance fitness (aPCA) (normalised: wild type 0, dead -1); higher = more abundant; growth selection in yeast, the domain comes from the species named
Settings: Homo sapiens

Variant	abundance fitness
R74I	-0.317 ± 0.13
R74C	0.06 ± 0.082
R74G	0.05 ± 0.05
R74F	-0.165 ± 0.15
R74L	-0.18 ± 0.089
R74E	0.066 ± 0.1
R74M	-0.056 ± 0.1
R74K	-0.263 ± 0.27
R74Q	0.023 ± 0.1
R74S	-0.032 ± 0.059
R74N	-0.044 ± 0.1
R74A	-0.119 ± 0.068
R74P	0.13 ± 0.1
R74W	-0.19 ± 0.081
R74H	-0.036 ± 0.12
R74V	-0.063 ± 0.068
R74T	0.088 ± 0.092
G72N	-0.136 ± 0.13
G72T	-0.056 ± 0.12
G72C	-0.075 ± 0.13
G72F	0.06 ± 0.11
G72Y	-0.074 ± 0.13
G72R	-0.009 ± 0.069
G72V	-0.062 ± 0.075
G72Q	0.089 ± 0.13

Variant	abundance fitness
G72D	0.098 ± 0.11
G72K	-0.134 ± 0.14
G72H	-0.046 ± 0.15
G72E	0.126 ± 0.088
G72A	-0.011 ± 0.075
G72S	-0.092 ± 0.1
G72L	-0.062 ± 0.068
G72W	-0.076 ± 0.12
T70I	-0.344 ± 0.29
A73K	-0.2 ± 0.12
A73T	-0.205 ± 0.27
A73M	-0.18 ± 0.12
A73N	-0.047 ± 0.17
A73W	-0.203 ± 0.071
A73D	-0.026 ± 0.07
A73P	-0.44 ± 0.15
A73Y	-0.166 ± 0.22
A73E	0.013 ± 0.068
A73C	-0.297 ± 0.12
A73F	-0.326 ± 0.12
A73G	-0.06 ± 0.06
A73R	0.008 ± 0.059
A73L	-0.176 ± 0.073
A73S	0 ± 0.084
A73Q	-0.138 ± 0.1

Variant	abundance fitness
A73I	-0.101 ± 0.14
A73V	-0.054 ± 0.067
Y65C	0.036 ± 0.11
Y65V	0.02 ± 0.059
Y65T	-0.276 ± 0.1
Y65M	-0.093 ± 0.09
Y65G	-0.218 ± 0.064
Y65H	-0.1 ± 0.18
Y65D	-0.17 ± 0.17
Y65I	-0.081 ± 0.24
Y65E	-0.092 ± 0.09
Y65W	-0.044 ± 0.11
Y65R	-0.117 ± 0.049
Y65L	-0.081 ± 0.073
Y65K	-0.178 ± 0.11
Y65S	-0.208 ± 0.075
Y65Q	-0.037 ± 0.14
Y65A	-0.158 ± 0.085
Y65F	-0.056 ± 0.1
Y65N	-0.062 ± 0.12
L76S	-0.084 ± 0.086
L71N	-0.129 ± 0.072
L71K	0.041 ± 0.1
L71Q	-0.043 ± 0.1
L71I	-0.021 ± 0.068

Variant	abundance fitness
L71P	-0.15 ± 0.075
L71V	-0.085 ± 0.064
L71H	-0.164 ± 0.084
L71D	-0.185 ± 0.15
L71W	-0.151 ± 0.11
L71T	0.073 ± 0.059
L71G	-0.128 ± 0.097
L71E	-0.114 ± 0.15
L71A	-0.142 ± 0.095
L71R	-0.25 ± 0.066
L71F	0.103 ± 0.073
L71M	0.115 ± 0.078
L71Y	-0.043 ± 0.065
P57K	-0.043 ± 0.11
P57T	-0.111 ± 0.079
P57V	-0.037 ± 0.072
P57M	-0.09 ± 0.1
P57W	0 ± 0.13
P57L	-0.075 ± 0.063
P57R	-0.1 ± 0.057
P57I	-0.167 ± 0.087
P57Q	-0.095 ± 0.078
P57Y	-0.03 ± 0.051
S58W	-0.458 ± 0.16
S58K	-0.125 ± 0.097

Variant	abundance fitness
S58C	0.075 ± 0.081
S58T	-0.229 ± 0.068
S58P	0.013 ± 0.062
S58D	-0.029 ± 0.074
S58R	-0.09 ± 0.059
S58Q	-0.134 ± 0.083
S58G	0.059 ± 0.071
S58I	-0.577 ± 0.098
S58E	0.133 ± 0.12
S58L	-0.251 ± 0.059
S58Y	-0.202 ± 0.064
S58H	-0.112 ± 0.061
S58A	-0.035 ± 0.068
S58N	-0.189 ± 0.062
S58V	-0.16 ± 0.085
K63C	-0.143 ± 0.087
K63G	-0.4 ± 0.16
K63L	-0.111 ± 0.061
K63A	-0.141 ± 0.084
K63F	-0.347 ± 0.12
K63N	-0.127 ± 0.1
K63T	-0.033 ± 0.068
K63S	-0.227 ± 0.07
K63D	-0.283 ± 0.15
K63R	-0.079 ± 0.071

Variant	abundance fitness
K63V	-0.142 ± 0.066
K63I	-0.146 ± 0.095
K63M	-0.133 ± 0.1
K63P	-0.949 ± 0.23
K63Y	-0.704 ± 0.2
K63H	-0.423 ± 0.1
K63W	-0.482 ± 0.19
K63Q	-0.084 ± 0.11
K63E	0.009 ± 0.19
C64V	-0.879 ± 0.27
C64T	-0.553 ± 0.2
C64F	-0.745 ± 0.48
C64A	-0.306 ± 0.096
C64L	-0.592 ± 0.16
C64N	-0.505 ± 0.45
C64R	-1.06 ± 0.32
C64K	-0.805 ± 0.29
C64G	-0.606 ± 0.11
C64M	-0.125 ± 0.12
G68D	-0.581 ± 0.47

Variants of: B2
Test: as above
Settings: Homo sapiens

Variant	abundance fitness
R67P	-0.808 ± 0.044
R67D	-0.018 ± 0.032
R67F	-0.095 ± 0.036
R67I	-0.159 ± 0.04
D64V	-0.593 ± 0.032
D64G	-0.038 ± 0.028
I41G	-0.084 ± 0.022
I41A	0.005 ± 0.023
G34Y	-0.867 ± 0.093
S36C	-0.051 ± 0.032
S36Q	-0.81 ± 0.052
S36N	-0.606 ± 0.062
S36L	-0.867 ± 0.041
S36A	0.032 ± 0.023
I78P	-0.569 ± 0.032
I78F	-0.042 ± 0.031
P35G	-0.661 ± 0.032
P35T	-0.543 ± 0.039
P35W	-1.08 ± 0.074
P35M	-0.355 ± 0.038
G43Q	-0.227 ± 0.03
G43Y	-0.246 ± 0.044
